From patent US20170129954A1 (PROTHENA BIOSCIENCES, published 2017)
Substitutions are numbered along the chain they refer to.

Experiments:
[1] = target: T1, human MCAM Y318A single mutant displayed on mammalian cells (human, UniProt P43121 24-646); assay: FACS on mammalian cells displaying the mutant
T1 construct: also called Y318A mutant
T1 chain: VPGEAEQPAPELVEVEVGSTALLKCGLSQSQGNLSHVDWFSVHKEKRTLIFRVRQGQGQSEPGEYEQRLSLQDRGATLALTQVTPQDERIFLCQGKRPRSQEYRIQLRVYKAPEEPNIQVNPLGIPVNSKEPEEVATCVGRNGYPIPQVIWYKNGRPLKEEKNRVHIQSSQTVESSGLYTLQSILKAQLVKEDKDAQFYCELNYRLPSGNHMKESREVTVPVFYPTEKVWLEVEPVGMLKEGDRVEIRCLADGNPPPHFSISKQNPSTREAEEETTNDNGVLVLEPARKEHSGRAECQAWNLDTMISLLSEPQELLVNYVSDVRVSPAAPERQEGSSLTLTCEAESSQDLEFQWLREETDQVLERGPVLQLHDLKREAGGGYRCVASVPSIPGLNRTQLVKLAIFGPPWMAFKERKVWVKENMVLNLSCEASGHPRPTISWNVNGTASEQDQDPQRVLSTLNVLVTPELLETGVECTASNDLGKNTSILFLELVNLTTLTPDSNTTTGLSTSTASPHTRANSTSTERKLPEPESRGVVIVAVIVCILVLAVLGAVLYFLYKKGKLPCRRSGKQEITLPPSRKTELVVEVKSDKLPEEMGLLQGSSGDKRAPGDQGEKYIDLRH
From the text: Twenty point mutants based on the structure information and shotgun mutagenesis information were designed and generated.

[2] = target: T2, human MCAM, full length, expressed on transfected cells (human, UniProt P43121 24-646); assay: flow cytometry, blocking of recombinant human laminin 411 (20 ug/ml) binding to CHO cells expressing human MCAM
T2 construct: also called CD146; MUC18
T2 chain: T1 chain with A295Y
Protocol: The 87 independent mouse fusion clones and 26 independent rat fusion clones described in Example 1 above as being capable of (i) binding to human MCAM, and (ii) blocking the interaction between human MCAM and the α-4 chain of laminin were further characterized as follows. First, IC50 quantitation for the ability of the monoclonal antibody to block the binding of human MCAM to the α-4 chain of laminin was determined as follows. CHO cells expressing human MCAM were incubated with an anti-human MCAM antibody (at various concentrations) for 30 minutes at 4 degrees Celsius. […] Unbound laminin was then washed away, and the laminin bound to the surface of the cells was detected with fluorescently labeled anti-laminin antibodies. After washing, the amount of laminin bound to the surface was detected by flow cytometry, and IC50s were calculated based on the mean fluorescent intensity.
Amino acid and nucleic acid sequences of the heavy and light chains of these antibodies, and their hypervariable regions, are provided in SEQ ID NOs:29-92. […] As such, each of these specific monoclonal antibodies was very capable of binding to human MCAM and inhibiting the interaction of cell-expressed human MCAM with its α-4 laminin binding ligand.

[3] = target: T3, human MCAM (antigen of the BLI kinetics in Example 7) (human, UniProt P43121 24-559, limits assumed); assay: BLI, ForteBio Octet QK, apparent ka
T3 chain: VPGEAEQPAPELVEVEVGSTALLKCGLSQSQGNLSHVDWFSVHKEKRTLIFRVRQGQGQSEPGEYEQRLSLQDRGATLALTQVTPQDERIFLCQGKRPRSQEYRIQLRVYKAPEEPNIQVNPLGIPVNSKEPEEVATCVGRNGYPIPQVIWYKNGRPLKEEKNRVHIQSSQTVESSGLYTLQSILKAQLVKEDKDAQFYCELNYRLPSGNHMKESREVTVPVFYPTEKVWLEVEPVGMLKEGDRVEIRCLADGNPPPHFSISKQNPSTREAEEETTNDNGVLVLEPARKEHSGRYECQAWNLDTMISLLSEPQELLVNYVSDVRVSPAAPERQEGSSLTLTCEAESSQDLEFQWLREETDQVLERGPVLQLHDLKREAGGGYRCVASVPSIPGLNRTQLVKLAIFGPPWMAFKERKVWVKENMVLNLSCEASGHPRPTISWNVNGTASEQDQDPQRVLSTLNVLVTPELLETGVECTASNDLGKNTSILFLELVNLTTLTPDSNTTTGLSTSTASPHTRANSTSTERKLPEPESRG
From the text: Apparent ka, apparent kd and apparent KD are binding kinetic parameters obtained using ForteBio assay formats.

B1: mouse anti-human MCAM monoclonal antibody clone 1749.1.3 (antibody, V domains shown)
VH: DVKLVESGGDLVKPGGSLKLSCAASGFTFSSYIMSWVRQTPEKRLEWVATISSGGSSTYYPDSVKGRFTISRDNAKNTLYLQMSSLKSEDTAMYYCTRDDDYDVKVFAYWGQGTLVTVSA
VL: DIVMSQSPSSLAVSAGEKVTMNCKSSRSLLNSRIRKNYLAWYQQKPGQSPKLLIYWASTRESGVPDRFTGSGSGTDFTLTISSVQAEDLAVYYCKQSYNLLTFGAGTKLELK
notes: Mouse hybridoma monoclonal antibody; also called m1749
[1]
  binding result: no binding
[2]
  IC50: 0.545 µg/mL
[3]
  kon: 1.41e+06 M⁻¹ s⁻¹
